From the nanobody polyreactivity screen of Harvey et al. (2022)

Test: yeast display, Sf9 membrane polyspecificity reagent, FACS + sequencing; frameworks hold sequencing errors
Procedure, shortened: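 Galactose-induced (36–48 hours) yeast carrying a synthetic nanobody display library were exposed to 10% biotinylated, detergent-solubilized Sf9 membrane reagent at 4 °C for 1 hour. FACS followed streptavidin microbead enrichment, using low and high (top ~1%) gates for expression (anti-HA) and reagent binding (streptavidin). Colony PCR, MiSeq 2 × 250 sequencing and CDR-length filtering followed. Labels for polyreactivity reflect the gate of origin.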

| Sequence | polyreactivity (PSR sort gate) |
| --- | --- |
| QVQLVESGGGLVQAGGSLRLSCAASGSTFDDYAMGWYRQAPGKERELVAAIYWSSGRTYYADSVKGRFTISRDNAKNTVYLQMNSLKPEDTAVYYCAARNRYDRLRYYYWGQGTQVTVSS | high polyreactivity |
| QVQLVESGGGLVQAGGSLRLSCAASGSTFDENAMGWYRQAPGKERELVAVISDSGGSTYYADSVKGRFTISRDNAKNTVDLQMNSLKPEVTAVYYCAKDVPPEYPTSSYDYWGQGTQVTVSS | low polyreactivity |
| QVQLVESGGGLVQAGGSLRLSCAASGSTFDFNAMGWYRQAPGKERELVAAITGSDGNTYYADSVKGRFTISRDNAKNTVYLQMNSLKPEDTAVYYCAADFSWWSKYVVLYDYWGQGTQVTVSS | low polyreactivity |
| QVQLVESGGGLVQAGGSLRLSCAASGSTFDFYAMAWYRQAPGKERELVADITSGGRTSYADSVKGRFTISRDNAKNTVYLQMNSLKPEDTAVYYCAALTRWYAWYDYWGQGTQVTVSS | high polyreactivity |
| QVQLVESGGGLVQAGGSLRLSCAASGSTFDGYAMGWYRQAPGKERELVAAISASGGSTYYADSVKGRFTISRDNAKNTVYLQMNSLKPEDTAVYYCAAQVRYLCYRYDYWGQGSQVTVSS | high polyreactivity |
| QVQLVESGGGLVQAGGSLRLSCAASGSTFDGYAMGWYTQAPGKERELVAAISKNGGRTYYADSVKGRFTISRDNAKNTVYLQMNSLKPEDTAVYYCAIDIIKYDYDYWGQGTQVTVSS | low polyreactivity |
| QVQLVESGGGLVQAGGSLRLSCAASGSTFDHYTMGWYRPAPGKERELVAAINRIGDSTYYADSVKGRFTISRDNAKNTVYLQMNSLKPEDTAVYYCAARHVPRFNKYGYWGQGTQVTVSS | high polyreactivity |
| QVQLVESGGGLVQAGGSLRLSCAASGSTFDINAMGWYRQAPGKERELVAAISWGGGSTYYADSVKGRFTISRDNAKNTVYLQMNSLKPEDTAVYYCAKLKGTQPNRYDYWGQGTQVTVSS | low polyreactivity |
| QVQLVESGGGLVQAGGSLRLSCAASGSTFDIYAMGWYRQAPGKERELVAAIRYSGGSTYYADSVKGRFTISRDNAKYTVYLQMNSLKPEDTAVYYCAADPYQLWHYYYFGMDYWGQGTEVTVSS | low polyreactivity |
| QVQLVESGGGLVQAGGSLRLSCAASGSTFDIYAMGWYRQAPGKERELVAVISGGDGSTYYADSVKGRFTISRDNAKNTVYLQMNSLKPEDTAVYFCAADYISPGYWDGEYDCWGQGTQVTVSS | low polyreactivity |
| QVQLVESGGGLVQAGGSLRLSCAASGSTFDIYAMGWYRQAPGNERELVAAISVSGGSTYYADSVKGRFTIARDNAKNTVDLQMNSLKPEDTAVYYCAAEAYTRFYQQFDYWGQGTQVTVSS | high polyreactivity |
| QVQLVESGGGLVQAGGSLRLSCAASGSTFDKKAMGWYRQAPGKERELVAAITWRGGRTYYADSVKGRFTISRDNAKNTVYLQLNSLKPEDTAVYYCNKVSWEQMDYWGQGTQVTVSS | low polyreactivity |
| QVQLVESGGGLVQAGGSLRLSCAASGSTFDKNAMGWYRQAPGKERELVDAISIGVSTNYADSVKGRFTISRDNAKNTVYLQMNSLKPEDTAVYYCAADLFFGAETVYYDKFDYWGQGTQVTVSS | low polyreactivity |
| QVQLVESGGGLVQAGGSLRLSCAASGSTFDNYAMGWNRQAPGKERELVADITWSGGSTYYADSVKGRFTSSRDNAKNTVYLQMNSLKPEDSAVYYCNSAGYYTKYDYWGQGTQVTVSS | low polyreactivity |
| QVQLVESGGGLVQAGGSLRLSCAASGSTFDPNAMGWYRHAPGKERELVAAIDSGGSSYYADSVKGRFTISRDNAKYTVYLQMNSLKPEDTAVYYCASNIVGRSPYDSNYDFEYWGQGTQVTVSS | low polyreactivity |
| QVQLVESGGGLVQAGGSLRLSCAASGSTFDPNAMGWYRQAPGKERELVAVIDSGDGTTNYADSVKGRFTISRDNAKNTVYLQMNSLKPEDTAVYYCNKDTLVYGYVQDYEYWGQGTQVTVSS | low polyreactivity |
| QVQLVESGGGLVQAGGSLRLSCAASGSTFDPNAMGWYRQAPGKETELVAAIDSGGSTYYADSVKGRFTISRDNAKNTVYLQMNSLKPEDTAVYYCATKQPTWVPRVIISYTKFDYWGQGTQVTVSS | low polyreactivity |
| QVQLVESGGGLVQAGGSLRLSCAASGSTFDPYAMGCYRQAAGKEREFVAYIDSSVGSTFYADSVKGRFTISRDNAKNTVYLQMNSLKPEDTAVYYCAAASRVAKGRWRLYDYWGQGTQVTVSS | high polyreactivity |
| QVQLVESGGGLVQAGGSLRLSCAASGSTFDPYGMGWYRQAPGKERELVAAITSSGRTNYADSVKGRFTISRDNAKNTVYLQMKSLKPEDTAVYYCATRKERYFYRGYEYWGQGTQVTVSS | low polyreactivity |
| QVQLVESGGGLVQAGGSLRLSCAASGSTFDQNTMGWYREAPGKERELVASITGGDSTNYADSVKGRFTISRDNAKNTVYLQMNSLKPEDTAVYYCAADKLYQPGIGDDYWGQGTQVTVSS | low polyreactivity |
| QVQLVESGGGLVQAGGSLRLSCAASGSTFDSNAMGWYRQAPGKERELVAAIRFSGGSTNYADSVKGRFTISRDKAKNTVYLQINSLKPEDTAVYYCAARYPNLRSRWYYYWGQGPQVTVSS | high polyreactivity |
| QVQLVESGGGLVQAGGSLRLSCAASGSTFDSYAMGWSRQAPGKERELVARINDSGGSTYYADSVKGRFTISRDNAKNTVYLHMNSLKPEDTAVYYCNAYSWYFLPNMDYWGQGTQVTVSS | low polyreactivity |

| Sequence | polyreactivity (PSR sort gate) |
| --- | --- |
| QVQLVESGGGLVQAGGSLRLSCAASGSTFDSYAMGWYRQAPGKERELVAAISSGGSTNYADSVKGRFTISRDNAKNTVYLQMNSLKPEDTAVYYCAAYGGHIWWLYRHYGYDYWGQGTQVTVSS | low polyreactivity |
| QVQLVESGGGLVQAGGSLRLSCAASGSTFDSYAMGWYRQAPGKERELVAAITNGGSTYYADSVKGRFTISRDNAKNTVYLQMNSLKPEDTAVYYCATDDYLLDYLYDYWGQGTQVTVSS | low polyreactivity |
| QVQLVESGGGLVQAGGSLRLSCAASGSTFDSYAMGWYRQAPGKERELVAVINSGGSTNYADSVKGRFTISRDNAKNTVYLLMNSLKPEDTAVYYCSAEERYRWHVVGWGYWYDYWGQGTQVTVSS | low polyreactivity |
| QVQLVESGGGLVQAGGSLRLSCAASGSTFDSYAMGWYSQAPGKERELVAAITYSGGRTYYADSVKGRFTISRDNAKNTVYLQMNSLKPEDTAVYYCAATGVFRDEYWGQGTQVTVSS | low polyreactivity |
| QVQLVESGGGLVQAGGSLRLSCAASGSTFDSYARVWYRQAPGKETELVARISIVGSTNYADSVKGRFTISRANAKNTVYLQMNCLKPDDTAVYYCAADRDWQYSFRHSVYGYDYDYWGQGTLVTVSS | low polyreactivity |
| QVQLVESGGGLVQAGGSLRLSCAASGSTFDTNAMGWYRQAPGKERELVAAISASGGSTYYADSVKGRFTISRDNAKNTVYLQMNSLKPEDTAVYDCAAKTRGQQRKFDYWGQGSQVTVSS | high polyreactivity |
| QVQLVESGGGLVQAGGSLRLSCAASGSTFDTNTMGWYIQAPGKERELVAAITSSGTSTSYADSVKGRFTISRDNAKNTVYLQMNSLKPEDTAVYYCAALRPGGGDYSDYDYWGQGTQVSVSS | low polyreactivity |
| QVQLVESGGGLVQAGGSLRLSCAASGSTFDTYAMGWYRQAPGKEREFVATITGSGGSTYYADSVKVRFTITRDNAKNTVYLQMNSLKPEDTAVYYCNAETYIDLRGKFPVEYDYWGQGTQVTVSS | low polyreactivity |
| QVQLVESGGGLVQAGGSLRLSCAASGSTFDTYAMGWYRQAPGKERELVAAISRSGTSTYYADSVKGRFTISRDNAKNTVYLQMISLKPEDTAVYYCDKDAGLQKYHHDYWGQGTQVTVSS | low polyreactivity |
| QVQLVESGGGLVQAGGSLRLSCAASGSTFDTYAMGWYRQAPGKERELVAAISRSGTSTYYADSVKGRFTISRDNAKNTVYLQMKSLKPEDTAVYYCAAYGPRVNGEIGREYYYWGQGTQVTVSS | low polyreactivity |
| QVQLVESGGGLVQAGGSLRLSCAASGSTFDVNAMGSYRQAPGKERELVAAISWNSGSTYYADSVKGRFTISRDNAKNTVYLQMNSLKPEDTAVYYCAATYGTGRRSKYGYWGQGTQVTVSS | high polyreactivity |
| QVQLVESGGGLVQAGGSLRLSCAASGSTFDVNTMGWYRQAPGTERELVAAIRLRGGSTYYADSVKGRFTISRDNAKNTVYLQMNSLKPEDTAVYYCAADYTLIYDYWGQGTQVTVSS | low polyreactivity |
| QVQLVESGGGLVQAGGSLRLSCAASGSTFDVYVMGWYRQAPGKERELVAAISSGDDTNYADSVKGRFTISRDNAKNTVYLQMNSLKPEDTAVYYCAAAYYYYVSGWFDYWGQGTQVTVSS | low polyreactivity |
| QVQLVESGGGLVQAGGSLRLSCAASGSTFDWYAMGWYRQAPGKDRELVAAISSDDSTYYADSVKGRFTISRDNAKNTVYLQMNSLIPEDTAVYYCAVDVYSDYGDYGYWGQGTQVTVSS | low polyreactivity |
| QVQLVESGGGLVQAGGSLRLSCAASGSTFDYNAMGWYRQAPGKERELVAAISSGSRTNYADSVKGRFTISRDNAKNTVYLQMNSLKPEDTAVYYCAAKAYFYRRTQSRFSLYYYWGQGTQVTVSS | high polyreactivity |
| QVQLVESGGGLVQAGGSLRLSCAASGSTFDYNTMGWYRQAPGKERELVAAISESGGSTYYADSVKGRFTISRDNAKNTVYLQMNSLKPEDTAVSYCATDDFGGYFGEYDYWGQGTQVTVSS | low polyreactivity |
| QVQLVESGGGLVQAGGSLRLSCAASGSTFDYYAMGWSRQAPGKERELVAGITGGGSTYYADSVKGRFTISRDNAKNTVYLQMNSLKPEDTAVYYCNAGPALRYDYWGQGTQVTVSS | low polyreactivity |
| QVQLVESGGGLVQAGGSLRLSCAASGSTFDYYAMGWYRQAPAKERELVAVISRSGGSTYYADSVKGRFTISRDNAKNTVYLQMNSLKPEDTAVYYCAKSRPSKYDYWGQGTQVTVSS | high polyreactivity |
| QVQLVESGGGLVQAGGSLRLSCAASGSTFDYYAMGWYRQAPGKERELVAAISRTGGRTYYADSVKGRFTISRDNEKNSVYLQMHSLKPEESAVYYCNSVTRIGGGDYDYWGQGTQVTVSS | low polyreactivity |
| QVQLVESGGGLVQAGGSLRLSCAASGSTFDYYAMGWYRQAPGKERELVAAISSSGSRTHYADSVKGRFTISRDNAKNTVYLQMNSLKPEDTAVYYCATYTKYWRYPYDYWGQGTQVTVSS | high polyreactivity |
| QVQLVESGGGLVQAGGSLRLSCAASGSTFDYYAMGWYRQAPGKERELVAAISSSGSSTYYADSVKGLFTISRDNAKNTVYLQMNSLKPEDTAVYYCAKGTNYRDDYWGQGTQVTVSS | low polyreactivity |
